Assay results as given in US5840867.

B1: 15-mer GGTTGGTGTGGTU'GG (ssDNA)
DNA: GGTTGGTGTGGTTGG
modifications: 5-(1-pentynyl)uracil at position 13 [13 = 5-(1-pentynyl)uracil (dU analog written as T)]

Each binder was assayed against thrombin (UniProt P00734;P00734 P00734:328-363,P00734:364-622) (assay: inhibition; fibrinogen clotting assay).

Binder	Ki
GGTTGGTGTGGTTGG (ssDNA, dU at positions 3 and 12 [n positions 3,12 = modified dU]) [15-mer GG(dU)TGGTGTGG(dU)TGG]	80 nM
B1	20 nM
GGTTGGTGTGGTTGG (ssDNA, PS linkages between 13-14 and 14-15) [15-mer with 3' thioates GGTTGGTGTGGTT*G*G]	40 nM
GGTTGGTGTGGTTGG (ssDNA, PS at all linkages) [15-mer all thioate]	280 nM
GGTTGGTGTGGTTGGGT (ssDNA, P(O)NH(CH2CH2OCH3) (MEA) linkages between 15-16 and 16-17) [17-mer with 3' MEA linkages GGTTGGTGTGGTTGG#G#T]	35 nM
GGTTGGTGTGGTTGG (ssDNA, dU at positions 7 and 9 [n positions 7,9 = modified dU]) [15-mer GGTTGG(dU)G(dU)GGTTGG]	15 nM
